Measurements from PMC5451212, “RISC-interacting clearing 3’- 5’ exoribonucleases (RICEs) degrade uridylated cleavage fragments to maintain functional RISC in Arabidopsis thaliana” (eLife, 2017).
Several values for one entry are separate records, joined by “and”; a condition that tells them apart may be missing. Identical values can stand only once.

What was measured:
[1] = biological target: the molecule itself; assay: crystal structure; RICE1 at 20 mg/ml, hanging drop at 16°C, ~30% pentaerythritol propoxylate (5/4 PO/OH), 0.2 M KCl, 50 mM HEPES pH 7.5; space group I4(1)22, three molecules in the asymmetric unit
[2] = biological target: the molecule itself; assay: SEC; purified proteins after SUMO protease cleavage on Superdex75 (1.6 x 60), 20 mM Tris-HCl pH 7.5, 150 mM NaCl
[3] = biological target: the molecule itself; assay: SEC; purified RICE1 D114A on Hiload 16/600 Superdex 200 instead of the routinely used Superdex 75
6His-SUMO-RICE2 = biological target: T1, 6His-SUMO-RICE2 (A. thaliana, UniProt Q9FNG3 1-206); assay: pull-down; His-SUMO baits and MBP-fusion preys purified from E. coli; prey preabsorbed on Ni-NTA resin, then incubated with bait 1 hr at room temperature and captured on Ni-NTA; 50 mM Tris pH 7.5, 150 mM NaCl, 0.2% glycerol, 0.6% Triton X-100, 0.5 mM β-mercaptoethanol; six washes with 300 mM NaCl; blot with anti-MBP; conditions: both partners purified
T1 construct: RICE2 (At5g06450; AtDECP), A. thaliana; open reading frame in pET28a-SUMO-DC; also called AtDECP; source: E. coli BL21 (DE3), purified (Ni-NTA); not shown: His6, N-terminal, kept; SUMO, N-terminal, kept
T1 sequence (looked up): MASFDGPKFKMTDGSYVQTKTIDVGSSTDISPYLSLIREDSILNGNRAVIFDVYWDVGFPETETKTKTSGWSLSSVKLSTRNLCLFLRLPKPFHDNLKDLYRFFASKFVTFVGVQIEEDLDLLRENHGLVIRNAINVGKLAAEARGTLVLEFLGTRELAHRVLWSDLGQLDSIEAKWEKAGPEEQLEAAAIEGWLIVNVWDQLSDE

6His-SUMO-RICE1 = biological target: T2, 6His-SUMO-RICE1 (A. thaliana, UniProt Q9SF21 1-200); assay: as above; conditions: both partners purified
T2 construct: RICE1 (At3g11770), A. thaliana; open reading frame in pET28a-SUMO-DC; source: E. coli BL21 (DE3), purified (Ni-NTA); not shown: His6, N-terminal, kept; SUMO, N-terminal, kept
T2 sequence (looked up): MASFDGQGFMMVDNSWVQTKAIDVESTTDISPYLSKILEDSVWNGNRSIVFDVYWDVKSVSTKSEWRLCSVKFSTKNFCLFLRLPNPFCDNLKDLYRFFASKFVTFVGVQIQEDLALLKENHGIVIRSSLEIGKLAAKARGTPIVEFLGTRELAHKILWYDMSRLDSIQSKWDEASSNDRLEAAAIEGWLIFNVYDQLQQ

B1: RICE1, purified recombinant (SUMO tag cleaved) (enzyme, A. thaliana, UniProt Q9SF21 1-200, looked up)
chain: MASFDGQGFMMVDNSWVQTKAIDVESTTDISPYLSKILEDSVWNGNRSIVFDVYWDVKSVSTKSEWRLCSVKFSTKNFCLFLRLPNPFCDNLKDLYRFFASKFVTFVGVQIQEDLALLKENHGIVIRSSLEIGKLAAKARGTPIVEFLGTRELAHKILWYDMSRLDSIQSKWDEASSNDRLEAAAIEGWLIFNVYDQLQQ
notes: RICE1 (At3g11770), A. thaliana; full-length cDNA in pET28a-SUMO (BamHI/SacI); also called wild type RICE1; source: E. coli BL21 (DE3), purified (Ni-NTA, SUMO protease cleavage, SEC); not shown: His6, N-terminal, cleaved; SUMO, N-terminal, cleaved
stoichiometry N [1]: 6
stoichiometry N [2]: ~6

B2: RICE1 D114A, purified recombinant (enzyme, A. thaliana, UniProt Q9SF21 1-200, looked up)
chain: MASFDGQGFMMVDNSWVQTKAIDVESTTDISPYLSKILEDSVWNGNRSIVFDVYWDVKSVSTKSEWRLCSVKFSTKNFCLFLRLPNPFCDNLKDLYRFFASKFVTFVGVQIQEALALLKENHGIVIRSSLEIGKLAAKARGTPIVEFLGTRELAHKILWYDMSRLDSIQSKWDEASSNDRLEAAAIEGWLIFNVYDQLQQ
notes: RICE1 (At3g11770), A. thaliana; point mutant made on pET28a-SUMO-RICE1; source: E. coli BL21 (DE3), purified (Ni-NTA, SUMO protease cleavage, SEC); not shown: His6, N-terminal, cleaved; SUMO, N-terminal, cleaved
stoichiometry N [3]: 2 and 6

B3: MBP-AGO10 PAZ (337-474) (domain or fragment, A. thaliana, UniProt Q9XGW1 337-474, looked up)
chain: LPVIEFVAQLLGKDVLSKPLSDSDRVKIKKGLRGVKVEVTHRANVRRKYRVAGLTTQPTRELMFPVDENCTMKSVIEYFQEMYGFTIQHTHLPCLQVGNQKKASYLPMEACKIVEGQRYTKRLNEKQITALLKVTCQR
notes: AGO10, A. thaliana, residues 337-474 (PAZ); source: E. coli BL21 (DE3), purified (amylose resin); not shown: MBP, N-terminal, kept
binding result (6His-SUMO-RICE2): binds
binding result (6His-SUMO-RICE1): binds
